Patent publication US20260069656A1, “Nutritive Polypeptides and Formulations Thereof, and Methods of Production and Use Thereof” (Axcella Health Inc., priority 2013, published 2026)
Substitutions are numbered along the chain they refer to. Numbers in names are those of the source.

B1: SEQID-00102: nutritive polypeptide (protein, listed as Lactobacillus johnsonii)
chain: MTEEEIFNKIADMISERFSIDRDKITKDLNFQNDLDADSIDFVELVMDLEDTFGAEIPDDDAEKLQTVGEAVEYIKSHQN
B2: SEQID-00236: nutritive polypeptide (protein, listed as Bos taurus)
chain: ALQEAHQQTLDDLQAEEDKVNTLTKAKTKLEQQVDDLEGSLEQEKKLRMDLERAKRKLEGDLKLA
B3: SEQID-00099: nutritive polypeptide (protein, listed as Thermosynechococcus elongatus)
chain: MNQSEILEKVKAIVADQLSVDPEKVVPEASFAEDLNADSLDSVELIMALEEEFGVEIPDEEAEKLKTVQDVLDFINNKVAA
B4: SEQID-00598: nutritive polypeptide naturally produced in Flaxseed, recombinantly expressed in E. coli (protein, listed as Linum usitatissimum)
chain: MSRRCPGKNAWPELVGKSGNMAAATVERENRNVHAIVLKEGSAMTKDFRCDRVWVIVNDHGVVTSVPHIT
B5: SEQID-00265: nutritive polypeptide (protein, listed as Bos taurus)
chain: SEGDRLRVELAEKANKLQNELDNVSTLLEEAEKKGIKFAKDAAGLESQLQDTQELLQEETRQKLNLSSRIRQLEEERSSLQEQQEEEEEARRSLEKQLQALQAQLTDTKKKVDDDLGTIENLEEAKKKLLKDVEVLSQRLEEKALAYDKLEKTKTRLQQELDDLLVDLDHQRQIVSNLEKKQKKFDQLLAEEKNISARYAEERDRAEAEAREKETKALSLARALEEALEAREEAERQNKQLRADMEDLMSSKDDVGKNVHELEKSKRALE
B6: R134M: single amino acid mutant of SEQID-00338 at substrate binding position 134 (protein, listed as Saccharomyces cerevisiae)
chain: MSSSESIRMVLIGPPGAGKGTQAPNLQERFHAAHLATGDMLRSQIAKGTQLGLEAKKIMDQGGLVSDDIMVNMIKDELTNNPACKNGFILDGFPRTIPQAEKLDQMLKEQGTPLEKAIELKVDDELLVARITGMLIHPASGRSYHKIFNPPKEDMKDDVTGEALVQRSDDNADALKKRLAAYHAQTEPIVDFYKKTGIWAGVDASQPPATVWADILNKLGKD
modifications: strain ATCC 204508 / S288c
B7: R42A: single amino acid mutant of SEQID-00338 at substrate binding position 42 (protein, listed as Saccharomyces cerevisiae)
chain: B6 chain with R42A, M134R
modifications: strain ATCC 204508 / S288c
B8: R42L: single amino acid mutant of SEQID-00338 at substrate binding position 42 (protein, listed as Saccharomyces cerevisiae)
chain: B6 chain with R42L, M134R
modifications: strain ATCC 204508 / S288c
B9: R42G: single amino acid mutant of SEQID-00338 at substrate binding position 42 (protein, listed as Saccharomyces cerevisiae)
chain: B6 chain with R42G, M134R
modifications: strain ATCC 204508 / S288c
B10: R42Q: single amino acid mutant of SEQID-00338 at substrate binding position 42 (protein, listed as Saccharomyces cerevisiae)
chain: B6 chain with R42Q, M134R
modifications: strain ATCC 204508 / S288c
B11: R42K: single amino acid mutant of SEQID-00338 at substrate binding position 42 (protein, listed as Saccharomyces cerevisiae)
chain: B6 chain with R42K, M134R
modifications: strain ATCC 204508 / S288c
B12: R134Y: single amino acid mutant of SEQID-00338 at substrate binding position 134 (protein, listed as Saccharomyces cerevisiae)
chain: B6 chain with M134Y
modifications: strain ATCC 204508 / S288c
B13: R42T: single amino acid mutant of SEQID-00338 at substrate binding position 42 (protein, listed as Saccharomyces cerevisiae)
chain: B6 chain with R42T, M134R
modifications: strain ATCC 204508 / S288c
B14: R42I: single amino acid mutant of SEQID-00338 at substrate binding position 42 (protein, listed as Saccharomyces cerevisiae)
chain: B6 chain with R42I, M134R
modifications: strain ATCC 204508 / S288c
B15: R42C: single amino acid mutant of SEQID-00338 at substrate binding position 42 (protein, listed as Saccharomyces cerevisiae)
chain: B6 chain with R42C, M134R
modifications: strain ATCC 204508 / S288c
B16: SEQID-00115: nutritive polypeptide (protein, listed as Sus scrofa)
chain: EDEDDKTVSDLAVVLFETATLRSGYLLPDTKAYGDRIERMLRLSLNIDPDAKVEEEPEEEPEETTEDTTEDTEQDDDEEMDAGADEEEQETSETSTAEKDE

System: not listed separately
Experiment: Intact half-life during simulated gastric fluid (SGF) digestion
Details: SGF pH 1.5, pepsin:polypeptide 1:20 w/w, 37° C.; produced in E. coli unless otherwise noted

Molecule | SGF Half-life (t½)
B1 | 36 s
B2 | 600 s
B3 | 60 s
B4 | 30 s
B5 | 1740 s

Same assay, conditions: purified proteins, chip electrophoresis, SGF

Molecule | Half-life
B4 | 30 s

System: kinase activity of SEQID-00338 (AMP + ATP→2ADP)
Experiment: Kinase activity of SEQID-00338 and mutants, ADP-Glo Max Assay
Type: biochemical
Details: 7 μg/mL, 30 minute reaction at 30° C.; N=2
Description: Determination of the kinase activity of SEQID-00338. The ADP-Glo™ Max Assay was obtained from Promega (Catalog number V7001, Madison, WI). Adenosine Monophosphate was obtained from Sigma-Aldrich (Catalog number A1752, St. Louis, MO). 5× Kinase Buffer was prepared w/1.211 g Tris Base (Catalog number BP152-2, Fisher Bioreagents, Pittsburgh, PA), 692 μL 12% hydrochloric acid solution (Catalog number BDH3026-500MLP, VWR, Radnor, PA), 10.0 mL 500 mM magnesium chloride (Catalog number BP214-500, Fisher Bioreagents, Pittsburgh, PA) and the volume brought to 50 mL with MilliQ water and filtered through 0.22 μm PES filter (Catalog number SCGP00525, Millipore, Billerica, MA) into a sterile 50 mL tube.
Twelve his-tag purified mutant proteins and the wild-type protein at 35 μg/mL in Tris buffer were serially diluted to 7.0 and 1.4 μg/mL. Prepared kinase reaction mix at 0.5 mM AMP/0.5 mM ATP to test for activity and at 0 mM AMP/0 mM ATP to assay background activity by diluting 5× Kinase Buffer with appropriate volumes of 10 mM AMP and 10 mM ATP in MilliQ water. Duplicate reactions were prepared by mixing 9 μL of the reaction mixture with 6 μL of diluted SEQID-00338, mixing by pipetting up and down and dispensing 5 μL into a 384-well white OptiPlate (PerkinElmer, Waltham, MA). An ADP standard curve was prepared by serially diluting 4 mM ADP in MilliQ water and adding kinase buffer to 1× for a standard at 0.0005, 0.001, 0.005, 0.01, 0.05, 0.1, 1.5, 1, 2, 3, and 4 mM ADP. The plate was covered with a foil plate seal and incubated at 30° C. for 30 min. Following the kinase reaction, 5 μL of ADP-Glo™ Reagent was added to each well. The plate was sealed with a foil plate seal and placed on a horizontal plate shaker at 450 rpm for 2 minutes at room temperature. The plate was removed from the plate shaker and incubated at room temperature for 40 minutes. The plate was then centrifuged for 15 seconds at 1109× rcf and 10 μL of ADP-Glo™ Max Detection Reagent was added. The plate was sealed with a foil plate seal and shaken on a horizontal plate shaker at 450 rpm at room temperature for 2 minutes. The plate was then removed from the plate shaker and incubated at room temperature for 60 minutes. The plate was centrifuged for 15 seconds at 1109× rcf and the luminescence read on an EnspireAlpha plate reader (PerkinElmer, Waltham, MA).
The ADP standard curve was used to determine the concentration of ADP in sample wells in the presence or absence of substrate. Concentrations were determined by performing a non-linear 4 parameter logistic on the X=log(X) transformed ADP standard luminescence values. […] Where the background concentration of ADP in the absence of substrate was calculable the average of those values were subtracted from the calculated ADP concentration in the substrate incubated wells. Activity knock out was calculated by percentage activity relative to purified wild-type protein at the same concentration.

AVG proportion activity, percentage AMP + ATP→2ADP converted relative to wild-type | Molecule
0.3% | B6
0.9% | B7
1.7% | B8
1.2% | B9
1.2% | B10
2.2% | B11
0.2% | B12
1.9% | B13
1.5% | B14
1.8% | B15

System: not listed separately
Experiment: Solubility of proteins (lyophilized/reconstituted or ultrafiltered)
Details: produced in E. coli unless otherwise noted
Description: Solubility. […] Protein samples were dried by lyophilization on a FreeZone Freeze Dry System (Labconco) using the manufacturer's standard protocol and then resuspended in buffer to the desired concentration. Centrifugal and tangential ultrafiltration were used to selectively remove buffer from the protein sample until the desired concentration was reached. Centrifugal ultrafiltration of protein solutions was performed by centrifugation (10,000×g) of 10 mg of protein in an Amicon centrifugal filter (Millipore) with a molecular weight cutoff of 3 kDa, 10 kDa, or 30 kDa, depending on the protein size, until the desired contrentration was reached. Ultrafiltration of protein solutions was performed on Hydrosart ultrafiltration cassettes (Sartorius Stedim, Bohemia, NY) with a molecular weight cutoff of 3 kDa, 10 kDa, or 30 kDa, depending on the protein size, at a cross flow rate of 12 L/m2/min. For most processes, transmembrane pressure was maintained at 20 psi and performed until the desired contrentration was reached.
The protein concentration of the above samples was measured by one or a combination of the following methods: Coomassie Plus Protein Assay, absorbance at 280 nm (A280), and total amino acid analysis. Coomassie Plus Protein Assays (Pierce) were performed according to the manufacturer's protocol. Absorbance at 280 nm was measured on a Nanodrop 2000 UV-Vis spectrophotometer. Protein concentration was determined using the A280 value and molar extinction coefficient, which was calculated by primary amino acid sequence using ProtParam (Gasteiger, Elisabeth, et al. The proteomics protocols handbook. Humana Press, 2005. 571-607.). Total amino acids were analyzed by HPLC after acid hydrolysis as described in Henderson, J. W., et al. Agilent Technologies (2010).

Molecule | Solubility
B1 | 120 mg/mL
B16 | 70 mg/mL
B2 | 60 mg/mL
B3 | 91 mg/mL
B4 | 150 mg/mL
B5 | 95 mg/mL

System: not listed separately
Experiment: Thermostability, ProteoStat Thermal Shift Stability Kit, temperature of aggregation
Type: physicochemical
Details: pH 7.1; heated from 25° C. to 95° C.
Description: Thermostability. The thermostability of proteins in a buffer cocktail of Citric Acid and Dibasic Sodium Phosphate over a pH range of 2.8 to 7.1 (preparation described above in Table E31B) was determined using the ProteoStat® Thermal Shift Stability Kit (Enzo Life Sciences) according to the manufacturer's standard protocol. Briefly, protein solutions (˜10 mg/ml) containing 1× ProteoStat TS Detection Reagent were heated from 25° C. to 95° C. at a rate of 0.5° C. per 30 sec using a real-time PCR (rtPCR) thermocycler (BioRad) equipped with a plate reader (SynergyMx, Biotek) while monitoring the fluorescence with a Texas Red filter.

Molecule | Tagg (pH 7.1)
B1 | >95
B3 | 64
B5 | >95

System: not listed separately
Experiment: pH solubility screen in Citric Acid / Dibasic Sodium Phosphate buffers
Type: physicochemical
Details: lower pH of range
Description: pH Solubility. […] Protein was either lyophilized and then resuspended in buffer cocktail mixtures, or concentrated and then spiked into buffer cocktail mixtures at a final protein concentration of 5 to 30 mg/ml. As a control, protein was also dissolved in a solution of 8 M urea. Protein solutions were shaken for 10 min at room temperature. Turbidity of proteins was determined by measuring the absorbance of protein solutions at 650 nm. The protein solution was then centrifuged for 10 min at 1100×g to pellet undissolved or precipitated protein. The soluble protein fraction (supernatant) was sampled and protein concentration was measured by one or more of the following methods: Coomassie Plus Protein Assay (Pierce), Chip electrophoresis, gel electrophoresis, and/or absorbance at 280 nm. The pH range over which select proteins remained greater than 80% soluble as determined by Bradford and the A650 value are listed in Table E31C.

Molecule | pH Range where Protein is >80% detected as Soluble and A650 <1 OD: Low
B5 | 5.1

Same assay, conditions: other pH where soluble

Molecule | pH Range where Protein is >80% detected as Soluble and A650 <1 OD: Other
B5 | 3

Same assay, conditions: upper pH of range

Molecule | pH Range where Protein is >80% detected as Soluble and A650 <1 OD: High
B5 | 9.1
